Series [1] addresses T1, DisA (Bacillus subtilis, UniProt P37573 1-360).
T1 sequence: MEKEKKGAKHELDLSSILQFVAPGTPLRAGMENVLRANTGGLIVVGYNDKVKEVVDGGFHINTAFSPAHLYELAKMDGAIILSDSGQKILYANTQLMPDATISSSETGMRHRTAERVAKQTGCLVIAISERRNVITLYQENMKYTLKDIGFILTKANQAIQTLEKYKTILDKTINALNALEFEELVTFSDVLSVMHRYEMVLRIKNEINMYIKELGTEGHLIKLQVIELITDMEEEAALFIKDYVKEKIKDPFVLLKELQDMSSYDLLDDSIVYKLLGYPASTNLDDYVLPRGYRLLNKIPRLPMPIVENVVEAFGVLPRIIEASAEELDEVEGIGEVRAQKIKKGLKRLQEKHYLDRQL
The series is described as follows: EMSA. The settings on record: 10 mM Mg2+; 0.2% glutaraldehyde; 50 mM Tris-HCl pH 7.5, 50 mM NaCl, 1 mM DTT, 0.05 mg/mL BSA, 5% glycerol, 1 or 10 mM MgCl2 or 5 mM EDTA, 15 min 37 C, 0.2 nM DNA; 0.2% glutaraldehyde before 6% …. In general terms: Mobility shift assays separate free from complexed probe on a gel.

The target in series [2] is T1, DisA. Nature of the series: EMSA; 10 mM Mg2+; 0.2% glutaraldehyde; 50 mM Tris-HCl pH 7.5, 50 mM NaCl, 1 mM DTT, 0.05 mg/mL BSA, 5% glycerol, 1 or 10 mM MgCl2 or 5 mM EDTA, 15 min 37 C, 0.2 nM DNA; 0.2% glutaraldehyde before 6%. The settings on record: protein: recombinant, chain copies: 8, label: 32P (5' by gamma-32P).
For series [3], the target named is T1, DisA. Nature of the series: EMSA; 10 mM Mg2+; 500 uM ATP; 50 mM Tris-HCl pH 7.5, 50 mM NaCl, 1 mM DTT, 0.05 mg/mL BSA, 5% glycerol, 1 or 10 mM MgCl2 or 5 mM EDTA, 15 min 37 C, 0.2 nM DNA; 0.2% glutaraldehyde before 6%. The settings on record: protein: recombinant; chain copies: 8; label: 32P (5' by gamma-32P); four-way junction.
Another series has as its target T2, RuvA (Bacillus subtilis, UniProt O05392 1-201).
T2 sequence: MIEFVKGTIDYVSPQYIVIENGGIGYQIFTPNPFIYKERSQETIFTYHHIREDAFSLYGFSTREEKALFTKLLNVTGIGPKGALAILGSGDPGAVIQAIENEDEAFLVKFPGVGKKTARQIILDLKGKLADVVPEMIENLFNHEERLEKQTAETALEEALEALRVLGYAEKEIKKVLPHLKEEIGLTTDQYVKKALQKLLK
The series is described as follows: EMSA; 1 mM Mg2+; 50 mM Tris-HCl pH 7.5, 50 mM NaCl, 1 mM DTT, 0.05 mg/mL BSA, 5% glycerol, 1 or 10 mM MgCl2 or 5 mM EDTA, 15 min 37 C, 0.2 nM DNA; 0.2% glutaraldehyde before 6%. The settings on record: protein: recombinant; chain copies: 8; label: 32P (5' by gamma-32P); four-way junction.

Another series has as its target T3, RecU (Bacillus subtilis, UniProt P39792 1-206).
T3 sequence: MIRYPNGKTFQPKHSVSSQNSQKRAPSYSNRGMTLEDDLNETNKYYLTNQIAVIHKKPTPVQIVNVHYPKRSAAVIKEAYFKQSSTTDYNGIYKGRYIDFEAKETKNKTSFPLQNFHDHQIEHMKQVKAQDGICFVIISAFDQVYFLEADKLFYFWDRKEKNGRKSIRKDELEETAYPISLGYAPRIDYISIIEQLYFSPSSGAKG
Described as above. The settings on record: protein: recombinant; chain copies: 2; label: 32P (5' by gamma-32P); four-way junction.

Another series has as its target T4, DisA;RuvA;RuvB (Bacillus subtilis;Bacillus …, UniProt P37573;O05392;O32055 1-360;1-201;1-334, ||).
T4 sequence 1: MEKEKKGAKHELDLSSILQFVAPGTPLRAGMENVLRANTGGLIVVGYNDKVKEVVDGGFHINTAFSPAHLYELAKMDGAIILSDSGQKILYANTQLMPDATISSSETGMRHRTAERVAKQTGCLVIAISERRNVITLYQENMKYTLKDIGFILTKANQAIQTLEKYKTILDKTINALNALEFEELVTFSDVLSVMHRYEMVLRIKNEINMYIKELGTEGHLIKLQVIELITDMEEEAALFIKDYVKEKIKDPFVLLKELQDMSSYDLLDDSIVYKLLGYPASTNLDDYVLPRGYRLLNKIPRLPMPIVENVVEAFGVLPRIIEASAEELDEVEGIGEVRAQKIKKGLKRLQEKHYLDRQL
T4 sequence 2: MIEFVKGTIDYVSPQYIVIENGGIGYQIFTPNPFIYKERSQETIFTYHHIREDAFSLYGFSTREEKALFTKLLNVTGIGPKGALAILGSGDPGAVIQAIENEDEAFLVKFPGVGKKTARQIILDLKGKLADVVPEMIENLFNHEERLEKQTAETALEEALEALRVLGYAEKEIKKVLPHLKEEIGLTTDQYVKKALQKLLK
T4 sequence 3: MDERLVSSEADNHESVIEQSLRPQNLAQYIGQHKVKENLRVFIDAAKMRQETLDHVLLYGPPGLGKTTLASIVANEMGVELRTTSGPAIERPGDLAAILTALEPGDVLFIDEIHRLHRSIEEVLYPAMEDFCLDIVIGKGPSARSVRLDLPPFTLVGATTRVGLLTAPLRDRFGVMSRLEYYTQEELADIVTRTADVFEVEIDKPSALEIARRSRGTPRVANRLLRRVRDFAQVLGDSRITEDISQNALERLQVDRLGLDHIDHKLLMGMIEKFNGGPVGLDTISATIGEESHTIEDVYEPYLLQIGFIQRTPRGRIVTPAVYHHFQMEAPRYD
Nature of the series: DNase I footprinting; 10 mM Mg2+; 5 mM ATPgS; either order of addition; 50 mM Tris-HCl pH 7.5, 50 mM NaCl, 1 mM DTT, 0.05 mg/mL BSA, 5% glycerol, 1 or 10 mM MgCl2 or 5 mM EDTA, 15 min 37 C, 0.2 nM DNA; 0.2% glutaraldehyde before 6%. The settings on record: protein: recombinant;recombinant;native; tags: ;;; label: 32P (5' by gamma-32P); four-way junction.

The target in another series is T5, DisA;RuvA (Bacillus subtilis;Bacillus subtilis, UniProt P37573;O05392 1-360;1-201, |).
T5 sequence 1: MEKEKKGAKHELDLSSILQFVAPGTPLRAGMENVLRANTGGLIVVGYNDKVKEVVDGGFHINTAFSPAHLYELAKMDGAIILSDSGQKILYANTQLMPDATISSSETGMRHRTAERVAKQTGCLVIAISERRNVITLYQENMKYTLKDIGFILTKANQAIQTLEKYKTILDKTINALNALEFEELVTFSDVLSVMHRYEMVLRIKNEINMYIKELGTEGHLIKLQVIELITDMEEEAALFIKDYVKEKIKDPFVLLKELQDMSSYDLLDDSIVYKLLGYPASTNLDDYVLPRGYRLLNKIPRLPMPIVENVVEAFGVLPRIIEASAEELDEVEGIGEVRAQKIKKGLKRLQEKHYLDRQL
T5 sequence 2: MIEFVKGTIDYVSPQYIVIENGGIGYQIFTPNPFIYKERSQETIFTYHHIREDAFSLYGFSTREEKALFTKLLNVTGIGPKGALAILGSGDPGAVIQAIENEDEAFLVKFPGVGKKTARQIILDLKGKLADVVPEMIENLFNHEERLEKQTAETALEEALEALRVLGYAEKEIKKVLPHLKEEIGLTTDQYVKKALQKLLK
The series is described as follows: EMSA; 1 mM Mg2+; new R+A complex; 50 mM Tris-HCl pH 7.5, 50 mM NaCl, 1 mM DTT, 0.05 mg/mL BSA, 5% glycerol, 1 or 10 mM MgCl2 or 5 mM EDTA, 15 min 37 C, 0.2 nM DNA; 0.2% glutaraldehyde before 6%. The settings on record: protein: recombinant;recombinant; tags: ;; chain copies: 8;8; label: 32P (5' by gamma-32P); four-way junction.

The target of the next series is T6, DisA;RecU (Bacillus subtilis;Bacillus subtilis, UniProt P37573;P39792 1-360;1-206, |).
T6 sequence 1: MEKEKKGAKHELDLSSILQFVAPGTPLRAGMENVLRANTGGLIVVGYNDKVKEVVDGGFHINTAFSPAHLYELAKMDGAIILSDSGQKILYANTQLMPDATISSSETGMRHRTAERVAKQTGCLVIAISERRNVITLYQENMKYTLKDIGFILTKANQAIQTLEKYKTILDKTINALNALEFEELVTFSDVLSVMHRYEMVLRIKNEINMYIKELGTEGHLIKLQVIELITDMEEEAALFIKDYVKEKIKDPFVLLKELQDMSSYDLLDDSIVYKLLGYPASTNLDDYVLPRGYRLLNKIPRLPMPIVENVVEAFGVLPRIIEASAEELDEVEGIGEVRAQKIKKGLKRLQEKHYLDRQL
T6 sequence 2: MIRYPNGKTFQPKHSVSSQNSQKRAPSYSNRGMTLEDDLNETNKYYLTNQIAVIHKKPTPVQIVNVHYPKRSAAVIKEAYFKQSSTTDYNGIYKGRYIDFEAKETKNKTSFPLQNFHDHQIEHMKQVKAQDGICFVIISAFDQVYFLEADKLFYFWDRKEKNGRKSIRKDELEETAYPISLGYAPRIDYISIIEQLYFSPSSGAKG
Nature of the series: DNase I footprinting; preformed at 1 mM Mg2+, then 10 mM Mg2+; coexistence judged likely; 50 mM Tris-HCl pH 7.5, 50 mM NaCl, 1 mM DTT, 0.05 mg/mL BSA, 5% glycerol, 1 or 10 mM MgCl2 or 5 mM EDTA, 15 min 37 C, 0.2 nM DNA; 0.2% glutaraldehyde before 6%. The settings on record: protein: recombinant;recombinant; tags: ;; chain copies: 8;2; label: 32P (5' by gamma-32P); four-way junction.

The next series concerns the target T7, RuvA;RuvB (Bacillus subtilis;Bacillus subtilis, UniProt O05392;O32055 1-201;1-334, |).
T7 sequence 1: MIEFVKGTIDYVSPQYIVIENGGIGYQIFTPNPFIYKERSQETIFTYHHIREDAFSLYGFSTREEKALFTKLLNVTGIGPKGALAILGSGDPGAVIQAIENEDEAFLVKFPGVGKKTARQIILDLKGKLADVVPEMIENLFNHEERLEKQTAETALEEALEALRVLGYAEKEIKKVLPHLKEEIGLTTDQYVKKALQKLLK
T7 sequence 2: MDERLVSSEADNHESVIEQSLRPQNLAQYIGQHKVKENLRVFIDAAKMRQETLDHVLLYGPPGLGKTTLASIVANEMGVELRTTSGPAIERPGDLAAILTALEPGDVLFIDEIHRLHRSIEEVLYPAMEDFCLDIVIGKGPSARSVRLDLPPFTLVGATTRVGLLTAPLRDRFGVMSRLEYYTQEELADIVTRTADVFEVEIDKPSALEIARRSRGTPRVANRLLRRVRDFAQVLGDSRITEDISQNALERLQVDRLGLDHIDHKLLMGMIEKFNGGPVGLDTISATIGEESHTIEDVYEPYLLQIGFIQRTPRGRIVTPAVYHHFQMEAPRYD
The series is described as follows: DNase I footprinting; 10 mM Mg2+; 5 mM ATPgS; ~40-nt footprint; 50 mM Tris-HCl pH 7.5, 50 mM NaCl, 1 mM DTT, 0.05 mg/mL BSA, 5% glycerol, 1 or 10 mM MgCl2 or 5 mM EDTA, 15 min 37 C, 0.2 nM DNA; 0.2% glutaraldehyde before 6%. The settings on record: protein: recombinant;native; tags: ;; chain copies: 8;12; label: 32P (5' by gamma-32P); four-way junction.

For the molecule ssDNA (oligonucleotide not stated), the Kd with DisA [1] turned out to be 3.3 nM.

B1: dsDNA (80-bp) (dsDNA)
DNA 1: CGCAGCGACAGGAACCTCGAGGAATTCAACCACCGCTCAACTCAACTGCAGTCTGACTCGAGGTTCCTGTCGCTTGCG
DNA 2: CGCAAGCGACAGGAACCTCGAGTCTAGACTGCAGTTGAGTTGAGCGGTGGTTGAATTCCTCGAGTTCCTGTCGCTTGCG
In the case of B1, in the series with DisA [2] (duplex, printed strands not exactly complementary (small deletions/insertion)), the Kd amounted to 2.6 ± 0.3 nM.

B2: HJ-J3 DNA (fixed Holliday junction) (structured_DNA)
DNA 1: CGCAAGCGACAGGAACCTCGAGAAGCTTCCGGTAGCAGCCTGAGCGGTGGTTGAATTCCTCGAGGTTCCTGTCGCTTGCG
DNA 2: CGCAGCGACAGGAACCTCGAGGAATTCAACCACCGCTCAACTCAACTGCAGTCTGACTCGAGGTTCCTGTCGCTTGCG
DNA 3: CGCAAGCGACAGGAACCTCGAGTCTAGACTGCAGTTGAGTCCTTGCTAGGACGGATCCCTCAGGTTCCTGTCGCTTGCG
DNA 4: CGCAAGCGACAGGAACCTCGAGGGATCCGTCCTAGCAAGGGGCTGCTACCGGAAGCTTCTCGAGGTTCCTGTCGCTTGCG
Regarding B2, the Kd with DisA [3] worked out at 5.5 ± 0.3 nM; in the series with RuvA it was 10 ± 2 nM; with RecU it was 0.6 ± 0.2 nM; with DisA [2] (four-way junction) it was 3 ± 0.5 nM. In addition, the binding result with DisA;RuvA;RuvB, with DisA;RuvA, with DisA;RecU and with RuvA;RuvB was “binds” each time.

B3: flayed DNA (170/173) (structured_DNA)
DNA 1: AGACGCTGCCGAATTCTGGCTTGGATCTGATGCTGTCTAGAGGCCTCCACTATGAAATCG
DNA 2: AGCTCATAGATCGATAGTCTCTAGACAGCATCAGATCCAAGCCAGAATTCGGCAGCGTCT
Take B3: the Kd in the series with DisA [2] (fork 1:2, unpaired 3' end of 170 and 5' end of 173) was 3.2 ± 0.2 nM.

What is called Kd is the concentration at which binding is half-saturated.

These data come from article PMC8583203, “DisA Restrains the Processing and Cleavage of Reversed Replication Forks by the RuvAB-RecU Resolvasome”.
